Experimental findings from article PMC3988174 are described below.

To fix the notation:
B1: Sugar transporter EDR6-like 7 (natural protein)
chain: MSKASDAVREPLVDKNMAGSKPDQPWMVYLSTFVAVCGSFAFGSCAGYSSPAQAAIRNDLSLTIAEFSLFGSLLTFGAMIGAITSGPIADLVGRKGAMRVSSAFCVVGWLAIIFAKGVVALDLGRLATGYGMGAFSYVVPIFIAEIAPKTFRGALTTLNQILICTGVSVSFIIGTLVTWRVLALIGIIPCAASFLGLFFIPESPRWLAKVGRDTEFEAALRKLRGKKADISEEAAEIQDYIETLERLPKAKMLDLFQRRYIRSVLIAFGLMVFQQFGGINGICFYTSSIFEQAGFPTRLGMIIYAVLQVVITALNAPIVDRAGRKPLLLVSATGLVIGCLIAAVSFYLKVHDMAHEAVPVLAVVGIMVYIGSFSAGMGAMPWVVMSEIFPINIKGVAGGMATLVNWFGAWAVSYTFNFLMSWSSYGTFLIYAAINALAIVFVIAIVPETKGKTLEQIQAIVNP
B2: Lactoylglutathionelyase (natural protein)
chain: MASEARESPANNPGLSTNRDEATKGYIMQQTMFRIKDPKASLDFYSRVLGMSLLKRLDFSEMKFSLYFLGYEDTTTAPTDPTERTVWTFGQPATIELTHNWGTESDPEFKGYHNGNSEPRGFGHIGVTVDDVHKACERFEELGVEFAKKPNDGKMKNIAFIKDPDGYWIEIFDLKTIGTTTVNAA
B3: Glutathione S-transferase PHI 2 (natural protein)
chain: MAGIKVFGHPASIATRRVLIALHEKNLDFELVHVELKDGEHKKEPFLSRNPFGQVPAFEDGDLKLFESRAITQYIAHRYENQGTNLLQTDSKNISQYAIMAIGMQVEDHQFDPVASKLAFEQIFKSIYGLTTDEAVVAEEEAKLAKVLDVYEARLKEFKYLAGETFTLTDLHHIPAIQYLLGTPTKKLFTERPRVNEWVAEITKRPASEKVQ
B4: Small GTP-binding protein (natural protein)
chain: MAMASAMDLSSPPTFFLSGTSTSSPSLRRLSSISVSGFRRHSNRKLQILCQATAGTEPQSGLSVSGSKLAARSGQDRLLKVPISNIRNFSIIAHIDHGKSTLADKLLQVTGTVQNRDMKEQFLDNMDLERERGITIKLQAARMRYVYEDTPFCLNLIDTPGHVDFSYEVSRSLAACEGALLVVDASQGVEAQTLANVYLALENNLEIIPVLNKIDLPGAEPEKVLREIEEVIGLDCSKAIFCSAKEGIGITEILDAIVQRIPAPLDTAGKPLRALIFDSYYDPYRGVIVYFRVIDGKVKKGDRIFFMASGKDYFADEVGVLSPNQIQVDELYAGEVGYIAASVRSVADARVGDTITHYSRKAESSLPGYEEATPMVFCGLFPVDADQFPDLRDALEKLQLNDAALKFEPETSSAMGFGFRCGFLGLLHMEIVQERLEREYNLNLITTAPSVVYRVNSVNGDTTLCSNPSRLPDPGQRKSVEEPYVKIELLTPKDYIGALMELAQERRGEFKEMKYIAENRASILYELPLAEMVGDFFDQLKSRTKGYASMEYSVIGYRESDLIKLDILINAEMVEPLSTIVHRDKAYSVGRALTQKLKELIPRQMFKVPIQACIGSKVIASEALSAIRKDVLAKCYGGDISRKKKLLKKQAAGKKRMKAIGRVDVPQEAFMAVLKLEREVL
B5: Tryptophan synthase, beta subunit 1 (natural protein)
chain: MAASGTSATFRASVSSAPSSSSQLTHLKSPFKAVKYTPLPSSRSKSSSFSVSCTIAKDPPVLMAAGSDPALWQRPDSFGRFGKFGGKYVPETLMHALSELESAFYALATDDDFQRELAGILKDYVGRESPLYFAERLTEHYRRENGEGPLIYLKREDLNHTGAHKINNAVAQALLAKRLGKKRIIAETGAGQHGVATATVCARFGLECIIYMGAQDMERQALNVFRMRLLGAEVRGVHSGTATLKDATSEAIRDWVTNVETTHYILGSVAGPHPYPMMVRDFHAVIGKETRKQALEKWGGKPDVLVACVGGGSNAMGLFHEFVNDTEVRMIGVEAAGFGLDSGKHAATLTKGDVGVLHGAMSYLLQDDDGQIIEPHSISAGLDYPGVGPEHSFFKDMGRAEYYSITDEEALEAFKRVSRLEGIIPALETSHALAYLEKLCPTLSDGTRVVLNFSGRGDKDVQTVAKYLDV
B6: Fe superoxide dismutase 1 (natural protein)
chain: MAASSAVTANYVLKPPPFALDALEPHMSKQTLEFHWGKHHRAYVDNLKKQVLGTELEGKPLEHIIHSTYNNGDLLPAFNNAAQAWNHEFFWESMKPGGGGKPSGELLALLERDFTSYEKFYEEFNAAAATQFGAGWAWLAYSNEKLKVVKTPNAVNPLVLGSFPLLTIDVWEHAYYLDFQNRRPDYIKTFMTNLVSWEAVSARLEAAKAASA
B7: Protein LURP-one-related 15 Protein (natural protein)
chain: MEQPYVYAYPQGSGPSGAPTPQAGGVVVDPKYCAPYPIDMAIVRKMMSLTDGNFVITDVNGNLLFKVKEPVFGLHDKRVLLDGSGTPVVTLREKMVSMHDRWQVFRGGSTDQRDLLYTVKRSSMLQLKTKLDVFLGHNKDEKRCDFRVKGSWLERSCVVYAGESDAIVAQMHRKHTVQSVFLGKDNFSVTVYPNVDYAFIASLVVILDDVNREDRAA
B8: MPBQ/MSBQ methyl transferase (natural protein)
chain: MASLMLNGAITFPKGLGSPGSNLHARSIPRPTLLSVTRTSTPRLSVATRCSSSSVSSSRPSAQPRFIQHKKEAYWFYRFLSIVYDHVINPGHWTEDMRDDALEPADLSHPDMRVVDVGGGTGFTTLGIVKTVKAKNVTILDQSPHQLAKAKQKEPLKECKIVEGDAEDLPFPTDYADRYVSAGSIEYWPDPQRGIREAYRVLKIGGKACLIGPVYPTFWLSRFFSDVWMLFPKEEEYIEWFKNAGFKDVQLKRIGPKWYRGVRRHGLIMGCSVTGVKPASGDSPLQLGPKEEDVEKPVNNPFSFLGRFLLGTLAAAWFVLIPIYMWIKDQIVPKDQPI
B9: Chloroplast chaperonin 10 (natural protein)
chain: MASTFVCSLPNPFFAFPVKATTPSTANHTLLGSRRGCLRIKAISTKWEPTKVVPQADRVLVRLEDLPIKSSGGVLLPKAAVKFERYLTGEIISVGSEVGQQVGPGKRVLFSDVSAYEVDLGTDARHCFCKESDLLALVE
B10: Translationally controlled tumor protein (natural protein)
chain: MLVYQDLLTGDELLSDSFPYKEIENGILWEVEGKWVTVGAVDVNIGANPSAEEGGEDEGVDDSTQKVVDIVDTFRLQEQPTYDKKGFIAYIKKYIKLLTPKLSEEDQAVFKKGIEGATKFLLPRLSDFQFFVGEGMHDDSTLVFAYYKEGSTNPTFLYFAHGLKEVKC
B11: Geranylgeranyl reductase (natural protein)
chain: MLFSGSAIPLSSFCSLPEKPHTLPMKLSPAAIRSSSSSAPGSLNFDLRTYWTTLITEINQKLDEAIPVKHPAGIYEAMRYSVLAQGAKRAPPVMCVAACELFGGDRLAAFPTACALEMVHAASLIHDDLPCMDDDPVRRGKPSNHTVYGSGMAILAGDALFPLAFQHIVSHTPPDLVPRATILRLITEIARTVGSTGMAAGQYVDLEGGPFPLSFVQEKKFGAMGECSAVCGGLLGGATEDELQSLRRYGRAVGMLYQVVDDITEDKKKSYDGGAEKGMMEMAEELKEKAKKELQVFDNKYGGGDTLVPLYTFVDYAAHRHFLLPL
B12: CCR-like protein (natural protein)
chain: MQGALFIKPTILLPLPSSVSSPKLTFLLPHATKASRLSSLRSNNSSSSSSLTSDPNTVDYNSSILSVFPAEACEVISGYACSADIYPEVKLDTKPVSRPVASEPVDREYEEYNSPKTVFREEACDDLGGEFCEPDFQKDAN

In the experiment the target is atToc132 G-domain bait (Arabidopsis thaliana) (UniProt Q9SLF3). As to the kind of experiment: two-hybrid; pairwise split-ubiquitin yeast two-hybrid of isolated NubG-preys with Toc159G, Toc132G or Toc132AG bait in NMY51; growth on SD-LWHA (3-AT) and quantitative β-Gal assay, activity relative to a reference bait set to 100%.
Chain of atToc132 G-domain bait (Arabidopsis thaliana) (Q9SLF3 456-794): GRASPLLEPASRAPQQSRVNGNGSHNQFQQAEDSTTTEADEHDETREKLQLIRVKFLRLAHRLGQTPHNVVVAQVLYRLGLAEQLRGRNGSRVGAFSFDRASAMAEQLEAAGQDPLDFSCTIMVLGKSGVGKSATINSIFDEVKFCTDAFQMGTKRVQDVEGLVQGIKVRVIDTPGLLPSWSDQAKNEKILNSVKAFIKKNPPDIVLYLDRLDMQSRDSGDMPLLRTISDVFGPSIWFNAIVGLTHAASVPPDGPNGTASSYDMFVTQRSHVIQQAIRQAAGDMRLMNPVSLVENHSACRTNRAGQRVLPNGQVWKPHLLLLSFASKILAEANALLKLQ
B1 had a % increase in strength of interaction (β-Gal) with 132G against 159G of 49.3%.

The molecule B2 registered a % increase in strength of interaction (β-Gal) with 132G against 159G of 91.5%.

Molecule B3 displayed a % increase in strength of interaction (β-Gal) with 132G against 159G of 52%.

In turn, B4 yielded a % increase in strength of interaction (β-Gal) with 132G against 159G of 41.1%.

Take B5: the % increase in strength of interaction (β-Gal) with 132G against 159G was 19.6%.

B6 showed a % increase in strength of interaction (β-Gal) with 132G against 159G of 99.5%.

As to B7, the % increase in strength of interaction (β-Gal) with 132G against 159G worked out at 29.9%.

Consider B8, for which the % increase in strength of interaction (β-Gal) with 132G against 159G is 30.7%.

The molecule B9 had a % increase in strength of interaction (β-Gal) with 132G against 159G of 42.1%.

Molecule B10 returned a % increase in strength of interaction (β-Gal) with 132G against 159G of 41%.

B11 came in with a % increase in strength of interaction (β-Gal) with 132G against 159G of 88%.

In turn, B12 showed a % increase in strength of interaction (β-Gal) with 132G against 159G of 74.4%.
